Assay results from PMC3197213 (Structure (London, England : 1993), 2011).

Target: rat syntaxin-1A SNARE motif (residues 191-253) (rat, UniProt P32851 191-253)
Experiment: NMR titration

rat syntaxin-1A SNARE motif (residues 191-253), sequence (P32851 191-253): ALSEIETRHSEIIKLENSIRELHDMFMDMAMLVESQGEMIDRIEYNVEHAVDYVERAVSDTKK

B1: Rat Munc13-1 MUN-CD module (1148-1407,EF,1453-1531 fragment) (domain or fragment)
chain: not shown
Kd: > 300 µM
